Laboratory results reported in paper doi:10.1101/2023.01.01.522448.
Several values for one entry are separate records, joined by “and”; a condition that tells them apart may be missing. Equal values may be shown once.

Legend:
[1] = target: recombinant L-asparaginase from Pseudomonas resinovorans IGS-131 (PrASNase) (Pseudomonas resinovorans IGS-131); experiment: SAXS
[2] = target: recombinant L-asparaginase from Pseudomonas resinovorans IGS-131 (PrASNase) (Pseudomonas resinovorans IGS-131); experiment: cross-linking + SEC
[3] = target: recombinant L-asparaginase from Pseudomonas resinovorans IGS-131 (PrASNase) (Pseudomonas resinovorans IGS-131); experiment: SEC
[4] = target: recombinant L-asparaginase from Pseudomonas resinovorans IGS-131 (PrASNase) (Pseudomonas resinovorans IGS-131); experiment: AUC
[5] = target: recombinant L-asparaginase from Pseudomonas resinovorans IGS-131 (PrASNase) (Pseudomonas resinovorans IGS-131); experiment: SEC; remark: listed apart in the source

With “recombinant L-asparaginase from Pseudomonas resinovorans IGS-131 (PrASNase) (enzyme)” as the substance, how does the stoichiometry N [1] read?
The stoichiometry N was 2 and 4.

And the stoichiometry N [2]?
Its stoichiometry N is 2.

What about the stoichiometry N [3] of the same substance?
The stoichiometry N was 2.

What about the percent present as dimer [4] of the same substance?
Its percent present as dimer is 4.8%.

What about the percent present as monomer [4] of the same substance?
Its percent present as monomer is 94.9%.

And the stoichiometry N [5]?
The stoichiometry N was 2.
